According to publication PMC8943062:

Experiments:
[1] = target: open-gate E71V KcsA channel (chymotrypsin-truncated, TM1 and TM2 cross-linked by C28-C118 disulfides) (UniProt P0A334); assay: crystal structure; KcsA-Fab complex (formed from purified channel in DM and Fab, excess Fab removed by SEC) concentrated to 15 mg/ml, crystallised in 50 mM magnesium acetate, 50 mM sodium acetate pH 5.5, 25% PEG 400 at 20 °C; one monomer in the asymmetric unit
[2] = target: closed-gate E71V KcsA channel (chymotrypsin-truncated) (UniProt P0A334); assay: as above

stoichiometry N [1] | stoichiometry N [2] | Substance
4 | – | open-gate E71V KcsA channel (chymotrypsin-truncated, TM1 and TM2 cross-linked by C28-C118 disulfides) (from UniProt P0A334 1-160) (natural protein)
– | 4 | closed-gate E71V KcsA channel (chymotrypsin-truncated) (from UniProt P0A334 1-160) (natural protein)
